Data published in article PMC8643664.

B1: FLAG-ORC1 (2–511) (domain or fragment)
chain: AHYPTRLKTRKTYSWVGRPLLDRKLHYQTYREMCVKTEGCSTEIHIQIGQFVLIEGDDDENPYVAKLLELFEDDSDPPPKKRARVQWFVRFCEVPACKRHLLGRKPGAQEIFWYDYPACDSNINAETIIGLVRVIPLAPKDVVPTNLKNEKTLFVKLSWNEKKFRPLSSELFAELNKPQESAAKCQKPVRAKSKSAESPSWTPAEHVAKRIESRHSASKSRQTPTHPLTPRARKRLELGNLGNPQMSQQTSCASLDSPGRIKRKVAFSEITSPSKRSQPDKLQTLSPALKAPEKTRETGLSYTEDDKKASPEHRIILRTRIAASKTIDIREERTLTPISGGQRSSVVPSVILKPENIKKRDAKEAKAQNEATSTPHRIRRKSSVLTMNRIRQQLRFLGNSKSDQEEKEILPAAEISDSSSDEEEASTPPLPRRAPRTVSRNLRSSLKSSLHTLTKVPKKSLKPRTPRCAAPQIRSRSLAAQEPASVLEEARLRLHVSAVPESLPCREQEF
B2: FLAG-ORC1 (full-length) (natural protein)
chain: MAHYPTRLKTRKTYSWVGRPLLDRKLHYQTYREMCVKTEGCSTEIHIQIGQFVLIEGDDDENPYVAKLLELFEDDSDPPPKKRARVQWFVRFCEVPACKRHLLGRKPGAQEIFWYDYPACDSNINAETIIGLVRVIPLAPKDVVPTNLKNEKTLFVKLSWNEKKFRPLSSELFAELNKPQESAAKCQKPVRAKSKSAESPSWTPAEHVAKRIESRHSASKSRQTPTHPLTPRARKRLELGNLGNPQMSQQTSCASLDSPGRIKRKVAFSEITSPSKRSQPDKLQTLSPALKAPEKTRETGLSYTEDDKKASPEHRIILRTRIAASKTIDIREERTLTPISGGQRSSVVPSVILKPENIKKRDAKEAKAQNEATSTPHRIRRKSSVLTMNRIRQQLRFLGNSKSDQEEKEILPAAEISDSSSDEEEASTPPLPRRAPRTVSRNLRSSLKSSLHTLTKVPKKSLKPRTPRCAAPQIRSRSLAAQEPASVLEEARLRLHVSAVPESLPCREQEFQDIYNFVESKLLDHTGGCMYISGVPGTGKTATVHEVIRCLQQAAQANDVPPFQYIEVNGMKLTEPHQVYVQILQKLTGQKATANHAAELLAKQFCTRGSPQETTVLLVDELDLLWTHKQDIMYNLFDWPTHKEARLVVLAIANTMDLPERIMMNRVSSRLGLTRMCFQPYTYSQLQQILRSRLKHLKAFEDDAIQLVARKVAALSGDARRCLDICRRATEICEFSQQKPDSPGLVTIAHSMEAVDEMFSSSYITAIKNSSVLEQSFLRAILAEFRRSGLEEATFQQIYSQHVALCRMEGLPYPTMSETMAVCSHLGSCRLLLVEPSRNDLLLRVRLNVSQDDVLYALKDE
B3: FLAG-ORC1 (244–511) (domain or fragment)
chain: NPQMSQQTSCASLDSPGRIKRKVAFSEITSPSKRSQPDKLQTLSPALKAPEKTRETGLSYTEDDKKASPEHRIILRTRIAASKTIDIREERTLTPISGGQRSSVVPSVILKPENIKKRDAKEAKAQNEATSTPHRIRRKSSVLTMNRIRQQLRFLGNSKSDQEEKEILPAAEISDSSSDEEEASTPPLPRRAPRTVSRNLRSSLKSSLHTLTKVPKKSLKPRTPRCAAPQIRSRSLAAQEPASVLEEARLRLHVSAVPESLPCREQEF
B4: FLAG-ORC1 (325–511) (domain or fragment)
chain: SKTIDIREERTLTPISGGQRSSVVPSVILKPENIKKRDAKEAKAQNEATSTPHRIRRKSSVLTMNRIRQQLRFLGNSKSDQEEKEILPAAEISDSSSDEEEASTPPLPRRAPRTVSRNLRSSLKSSLHTLTKVPKKSLKPRTPRCAAPQIRSRSLAAQEPASVLEEARLRLHVSAVPESLPCREQEF

Each binder was assayed against TRF2 (45–244)-LacI (assay: lacO-LacI protein tethering assay).
A co-localization frequency of 73% was found for B1 in this work.
A co-localization frequency of 26% was found for B2 in this work.
A co-localization frequency of 90% was found for B3 in this work.
A co-localization frequency of 46% was found for B4 in this work.
